Source: patent publication US20220048996A1 (F STAR BETA, published 2022)

Legend:
[1] = target: T1, cynomolgus CD137 expressed on DO11.10 cells (DO11.10-cCD137) (cynomolgus monkey, UniProt Q07011 24-255 (human entry)); assay: flow cytometry on DO11.10 cells expressing the target
T1 chain: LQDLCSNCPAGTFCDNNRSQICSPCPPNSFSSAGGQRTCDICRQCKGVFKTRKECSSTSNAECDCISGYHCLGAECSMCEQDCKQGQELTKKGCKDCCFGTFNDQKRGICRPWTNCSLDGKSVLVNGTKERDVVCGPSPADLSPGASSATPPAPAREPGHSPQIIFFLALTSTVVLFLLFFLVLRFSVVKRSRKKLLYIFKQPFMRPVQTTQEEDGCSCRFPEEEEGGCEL
Method: (§1) 50 μl of the antibody dilutions were added to the wells containing cells (final volume 100 μl) and incubated at 4° C. for 1 hour. […] The plates were washed and resuspended in 100 μl of PBS containing DAPI (Biotium, cat no 40043) at 1 μg/ml. The plates were analysed using a Canto II flow cytometer (BD Bioscience) and the data analysed using FlowJo. Dead cells were identified by their higher fluorescence on the UV (405 nm/450/50) channel and excluded from analysis. […] The GMFI data was fit using log (agonist) vs response (three parameters) in Graph Pad Prism Software to generate EC₅₀ values.

[2] = target: T2, human CD137 expressed on DO11.10 cells (DO11.10-hCD137) (human, UniProt Q07011 24-255); assay: as above
T2 construct: also called CD137 on human T cells
Method: as §1

B1: FS20-22-49AA/4420 (antibody, human IgG1, kappa, L234A L235A)
heavy: EVKLDETGGGLVQPGRPMKLSCVASGFTFSDYWMNWVRQSPEKGLEWVAQIRNKPYNYETYYSDSVKGRFTISRDDSKSSVYLQMNNLRVEDMGIYYCTGSYYGMDYWGQGTSVTVSSASTKGPSVFPLAPSSKSTSGGTAALGCLVKDYFPEPVTVSWNSGALTSGVHTFPAVLQSSGLYSLSSVVTVPSSSLGTQTYICNVNHKPSNTKVDKKVEPKSCDKTHTCPPCPAPEAAGGPSVFLFPPKPKDTLMISRTPEVTCVVVDVSHEDPEVKFNWYVDGVEVHNAKTKPREEQYNSTYRVVSVLTVLHQDWLNGKEYKCKVSNKALPAPIEKTISKAKGQPREPQVYTLPPSRDEYWDQEVSLTCLVKGFYPSDIAVEWESNGDEQFAYKTTPPVLDSDGSFFLYSKLTVDQYRWNPADYFSCSVMHEALHNHYTQKSLSLSPG
light: DVVMTQTPLSLPVSLGDQASISCRSSQSLVHSNGNTYLRWYLQKPGQSPKVLIYKVSNRFSGVPDRFSGSGSGTDFTLKISRVEAEDLGVYFCSQSTHVPWTFGGGTKLEIKRTVAAPSVFIFPPSDEQLKSGTASVVCLLNNFYPREAKVQWKVDNALQSGNSQESVTEQDSKDSTYSLSSTLTLSKADYEKHKVYACEVTHQGLSSPVTKSFNRGEC
notes: also called OX40/FITC mock mAb^2; FS20-22-49 Fcab in mock (4420 LALA) mAb^2 format
B1: no binding [1]; no binding [2].
